These results are taken from article PMC6926464, “Gating control of the cardiac sodium channel Nav1.5 by its β3-subunit involves distinct roles for a transmembrane glutamic acid and the extracellular domain” (The Journal of Biological Chemistry, 2019).

Numbering of substitutions follows the chain as printed. Numbers in names are those of the source. Where “and” joins values, the source holds several entries; their conditions need not be identical. Equal values may be shown once.

The series deals with the molecule itself. Description: cross-linking; HEK293F cells singly transfected with EGFP-tagged β3 constructs; lysate (Hanks' balanced salt solution, 1% Triton X-100, 0.2% SDS, 0.5% sodium deoxycholate) incubated with BS3 (5 mM) for 1 h at 4 °C, quenched with glycine; SDS-PAGE and anti-GFP Western blot.

B1: full-length WT β3-subunit with C-terminal EGFP tag (natural protein, human, UniProt Q9NY72 23-215, looked up)
chain: FPVCVEVPSETEAVQGNPMKLRCISCMKREEVEATTVVEWFYRPEGGKDFLIYEYRNGHQEVESPFQGRLQWNGSKDLQDVSITVLNVTLNDSGLYTCNVSREFEFEAHRPFVKTTRLIPLRVTEEAGEDFTSVVSEIMMYILLVFLTLWLLIEMIYCYRKVSKAEEAAQENASDYLAIPSENKENSAVPVEE
notes: voltage-gated sodium channel auxiliary β3-subunit, full-length; glycosylated (multiple bands on SDS-PAGE); also called WT-β3-EGFP; FL β3-EGFP; source: HEK293F, transfected (pcDNA3 WT-β3-EGFP), in lysate; not shown: EGFP, C-terminal, kept
Take B1: the stoichiometry N (as a rule, a count of units in the complex or per binding partner) is 2 and 3.

B2: full-length β3-subunit E176K with C-terminal EGFP tag (natural protein, human, UniProt Q9NY72 23-215, looked up)
chain: B1 chain with E154K
notes: voltage-gated sodium channel auxiliary β3-subunit, full-length, with E176K in the transmembrane region; residues numbered from the start codon of the cDNA; Made by site-directed mutagenesis of WT-β3-EGFP; also called β3-E176K-EGFP; E176K-EGFP; source: HEK293F, transfected, in lysate; not shown: EGFP, C-terminal, kept
For B2, the “stoichiometry N” value is 2 and 3.
